Test [1] addresses GMPCPP-stabilized microtubules of porcine brain tubulin (porcine) (UniProt P02550).
Test [2] has as its target T1, katanin MEI-1/MEI-2 (wild type) (C. elegans) (UniProt P34808).
T1 sequence 1: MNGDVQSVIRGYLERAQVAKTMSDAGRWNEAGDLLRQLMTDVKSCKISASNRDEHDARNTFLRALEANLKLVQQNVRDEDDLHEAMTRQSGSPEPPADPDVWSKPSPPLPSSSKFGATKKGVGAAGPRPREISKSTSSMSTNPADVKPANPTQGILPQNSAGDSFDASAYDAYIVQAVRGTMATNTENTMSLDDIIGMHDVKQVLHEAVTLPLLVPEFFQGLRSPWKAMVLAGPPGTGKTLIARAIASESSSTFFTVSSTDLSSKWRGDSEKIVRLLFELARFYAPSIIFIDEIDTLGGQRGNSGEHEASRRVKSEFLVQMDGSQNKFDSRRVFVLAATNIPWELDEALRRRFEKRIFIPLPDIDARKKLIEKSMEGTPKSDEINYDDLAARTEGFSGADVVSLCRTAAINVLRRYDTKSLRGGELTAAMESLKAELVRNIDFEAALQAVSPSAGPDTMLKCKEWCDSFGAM
T1 sequence 2: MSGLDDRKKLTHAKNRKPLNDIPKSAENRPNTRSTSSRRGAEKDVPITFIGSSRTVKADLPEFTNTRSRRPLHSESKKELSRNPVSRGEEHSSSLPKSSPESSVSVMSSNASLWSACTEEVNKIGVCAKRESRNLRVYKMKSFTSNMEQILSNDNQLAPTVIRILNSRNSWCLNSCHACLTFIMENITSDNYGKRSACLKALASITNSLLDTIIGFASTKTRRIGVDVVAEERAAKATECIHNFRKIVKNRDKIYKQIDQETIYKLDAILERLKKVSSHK

The target in test [3] is T1, katanin MEI-1/MEI-2 (wild type) (C. elegans). This is another data set of the same source.
Test [4] has as its target katanin MEI-1/MEI-2 mutant Glu308 to alanine (C. elegans) (UniProt P34808).
Test [5] deals with taxol-stabilized brain microtubules (UniProt P02550).
For test [6], the target named is katanin MEI-1/MEI-2 mutant W266A (C. elegans) (UniProt P34808).
The target of test [7] is GMPCPP-stabilized microtubules of porcine brain tubulin (porcine) (UniProt P02550). The source holds these as a separate data set.
Test [8] has as its target katanin MEI-1/MEI-2 mutant R267A (C. elegans) (UniProt P34808).
Test [9] has as its target katanin MEI-1/MEI-2 mutant K265A (C. elegans) (UniProt P34808).

On to “Drosophila melanogaster spastin with Arg159Arg160Arg166Arg172Arg174 mutated to alanine (enzyme)”, for which the microtubule severing activity of spastin at 20 nM, reduction against wild type in test [1] was 70%.

In turn, “Drosophila melanogaster spastin mutated in the N-terminal positively-charged cluster Arg110Lys111Lys117Arg118 (enzyme)” had a microtubule severing activity of spastin at 20 nM, reduction against wild type in test [1] of 50%.

Turning to βV-tail (peptide), in test [2], the stimulation of katanin ATPase by the tail, weaker than βI and βIVb by is 30%.

With DATAEEEEDFGEEAEEEA [βI-tubulin tail peptide], the maximal stimulation of katanin ATPase by the tail peptide (2 to 600 μM) in [3] was found to be 3.5 fold.

VDSVEGEGEEEGEEY [α-tubulin tail peptide]: the maximal stimulation of katanin ATPase by the tail peptide (2 to 600 μM) in [3] is 2.2 fold.

B1: katanin MEI-1/MEI-2 mutant Glu308 to alanine (complex)
chain 1: MNGDVQSVIRGYLERAQVAKTMSDAGRWNEAGDLLRQLMTDVKSCKISASNRDEHDARNTFLRALEANLKLVQQNVRDEDDLHEAMTRQSGSPEPPADPDVWSKPSPPLPSSSKFGATKKGVGAAGPRPREISKSTSSMSTNPADVKPANPTQGILPQNSAGDSFDASAYDAYIVQAVRGTMATNTENTMSLDDIIGMHDVKQVLHEAVTLPLLVPEFFQGLRSPWKAMVLAGPPGTGKTLIARAIASESSSTFFTVSSTDLSSKWRGDSEKIVRLLFELARFYAPSIIFIDEIDTLGGQRGNSGEHAASRRVKSEFLVQMDGSQNKFDSRRVFVLAATNIPWELDEALRRRFEKRIFIPLPDIDARKKLIEKSMEGTPKSDEINYDDLAARTEGFSGADVVSLCRTAAINVLRRYDTKSLRGGELTAAMESLKAELVRNIDFEAALQAVSPSAGPDTMLKCKEWCDSFGAM
chain 2: MSGLDDRKKLTHAKNRKPLNDIPKSAENRPNTRSTSSRRGAEKDVPITFIGSSRTVKADLPEFTNTRSRRPLHSESKKELSRNPVSRGEEHSSSLPKSSPESSVSVMSSNASLWSACTEEVNKIGVCAKRESRNLRVYKMKSFTSNMEQILSNDNQLAPTVIRILNSRNSWCLNSCHACLTFIMENITSDNYGKRSACLKALASITNSLLDTIIGFASTKTRRIGVDVVAEERAAKATECIHNFRKIVKNRDKIYKQIDQETIYKLDAILERLKKVSSHK
For the molecule B1, the basal ATPase, reduction against wild type in [4] came out at 87%.

B2: katanin MEI-1/MEI-2 mutant W266A (complex)
chain 1: MNGDVQSVIRGYLERAQVAKTMSDAGRWNEAGDLLRQLMTDVKSCKISASNRDEHDARNTFLRALEANLKLVQQNVRDEDDLHEAMTRQSGSPEPPADPDVWSKPSPPLPSSSKFGATKKGVGAAGPRPREISKSTSSMSTNPADVKPANPTQGILPQNSAGDSFDASAYDAYIVQAVRGTMATNTENTMSLDDIIGMHDVKQVLHEAVTLPLLVPEFFQGLRSPWKAMVLAGPPGTGKTLIARAIASESSSTFFTVSSTDLSSKARGDSEKIVRLLFELARFYAPSIIFIDEIDTLGGQRGNSGEHEASRRVKSEFLVQMDGSQNKFDSRRVFVLAATNIPWELDEALRRRFEKRIFIPLPDIDARKKLIEKSMEGTPKSDEINYDDLAARTEGFSGADVVSLCRTAAINVLRRYDTKSLRGGELTAAMESLKAELVRNIDFEAALQAVSPSAGPDTMLKCKEWCDSFGAM
chain 2: MSGLDDRKKLTHAKNRKPLNDIPKSAENRPNTRSTSSRRGAEKDVPITFIGSSRTVKADLPEFTNTRSRRPLHSESKKELSRNPVSRGEEHSSSLPKSSPESSVSVMSSNASLWSACTEEVNKIGVCAKRESRNLRVYKMKSFTSNMEQILSNDNQLAPTVIRILNSRNSWCLNSCHACLTFIMENITSDNYGKRSACLKALASITNSLLDTIIGFASTKTRRIGVDVVAEERAAKATECIHNFRKIVKNRDKIYKQIDQETIYKLDAILERLKKVSSHK
In the case of B2, the microtubule stimulated ATPase, reduced (so in the source) in test [5] is 64%. Moreover, the basal ATPase, reduced (so in the source) in test [6] turned out to be 59%.

B3: katanin MEI-1/MEI-2 Arg128Arg130Lys134Ala triple mutant (complex)
chain 1: MNGDVQSVIRGYLERAQVAKTMSDAGRWNEAGDLLRQLMTDVKSCKISASNRDEHDARNTFLRALEANLKLVQQNVRDEDDLHEAMTRQSGSPEPPADPDVWSKPSPPLPSSSKFGATKKGVGAAGPAPAEISASTSSMSTNPADVKPANPTQGILPQNSAGDSFDASAYDAYIVQAVRGTMATNTENTMSLDDIIGMHDVKQVLHEAVTLPLLVPEFFQGLRSPWKAMVLAGPPGTGKTLIARAIASESSSTFFTVSSTDLSSKWRGDSEKIVRLLFELARFYAPSIIFIDEIDTLGGQRGNSGEHEASRRVKSEFLVQMDGSQNKFDSRRVFVLAATNIPWELDEALRRRFEKRIFIPLPDIDARKKLIEKSMEGTPKSDEINYDDLAARTEGFSGADVVSLCRTAAINVLRRYDTKSLRGGELTAAMESLKAELVRNIDFEAALQAVSPSAGPDTMLKCKEWCDSFGAM
chain 2: MSGLDDRKKLTHAKNRKPLNDIPKSAENRPNTRSTSSRRGAEKDVPITFIGSSRTVKADLPEFTNTRSRRPLHSESKKELSRNPVSRGEEHSSSLPKSSPESSVSVMSSNASLWSACTEEVNKIGVCAKRESRNLRVYKMKSFTSNMEQILSNDNQLAPTVIRILNSRNSWCLNSCHACLTFIMENITSDNYGKRSACLKALASITNSLLDTIIGFASTKTRRIGVDVVAEERAAKATECIHNFRKIVKNRDKIYKQIDQETIYKLDAILERLKKVSSHK
For B3, in [7], the microtubule severing activity, reduction against wild type came to 32% and the tubulin extraction (nanodamage) activity, reduction against wild type was 51%.

B4: katanin MEI-1/MEI-2 mutant R267A (complex)
chain 1: MNGDVQSVIRGYLERAQVAKTMSDAGRWNEAGDLLRQLMTDVKSCKISASNRDEHDARNTFLRALEANLKLVQQNVRDEDDLHEAMTRQSGSPEPPADPDVWSKPSPPLPSSSKFGATKKGVGAAGPRPREISKSTSSMSTNPADVKPANPTQGILPQNSAGDSFDASAYDAYIVQAVRGTMATNTENTMSLDDIIGMHDVKQVLHEAVTLPLLVPEFFQGLRSPWKAMVLAGPPGTGKTLIARAIASESSSTFFTVSSTDLSSKWAGDSEKIVRLLFELARFYAPSIIFIDEIDTLGGQRGNSGEHEASRRVKSEFLVQMDGSQNKFDSRRVFVLAATNIPWELDEALRRRFEKRIFIPLPDIDARKKLIEKSMEGTPKSDEINYDDLAARTEGFSGADVVSLCRTAAINVLRRYDTKSLRGGELTAAMESLKAELVRNIDFEAALQAVSPSAGPDTMLKCKEWCDSFGAM
chain 2: MSGLDDRKKLTHAKNRKPLNDIPKSAENRPNTRSTSSRRGAEKDVPITFIGSSRTVKADLPEFTNTRSRRPLHSESKKELSRNPVSRGEEHSSSLPKSSPESSVSVMSSNASLWSACTEEVNKIGVCAKRESRNLRVYKMKSFTSNMEQILSNDNQLAPTVIRILNSRNSWCLNSCHACLTFIMENITSDNYGKRSACLKALASITNSLLDTIIGFASTKTRRIGVDVVAEERAAKATECIHNFRKIVKNRDKIYKQIDQETIYKLDAILERLKKVSSHK
Molecule B4 displayed a basal ATPase, reduction against wild type in [8] of 51%. Besides, the microtubule stimulated ATPase, reduction against wild type in test [5] is 60%.

B5: katanin MEI-1/MEI-2 mutant K265A (complex)
chain 1: MNGDVQSVIRGYLERAQVAKTMSDAGRWNEAGDLLRQLMTDVKSCKISASNRDEHDARNTFLRALEANLKLVQQNVRDEDDLHEAMTRQSGSPEPPADPDVWSKPSPPLPSSSKFGATKKGVGAAGPRPREISKSTSSMSTNPADVKPANPTQGILPQNSAGDSFDASAYDAYIVQAVRGTMATNTENTMSLDDIIGMHDVKQVLHEAVTLPLLVPEFFQGLRSPWKAMVLAGPPGTGKTLIARAIASESSSTFFTVSSTDLSSAWRGDSEKIVRLLFELARFYAPSIIFIDEIDTLGGQRGNSGEHEASRRVKSEFLVQMDGSQNKFDSRRVFVLAATNIPWELDEALRRRFEKRIFIPLPDIDARKKLIEKSMEGTPKSDEINYDDLAARTEGFSGADVVSLCRTAAINVLRRYDTKSLRGGELTAAMESLKAELVRNIDFEAALQAVSPSAGPDTMLKCKEWCDSFGAM
chain 2: MSGLDDRKKLTHAKNRKPLNDIPKSAENRPNTRSTSSRRGAEKDVPITFIGSSRTVKADLPEFTNTRSRRPLHSESKKELSRNPVSRGEEHSSSLPKSSPESSVSVMSSNASLWSACTEEVNKIGVCAKRESRNLRVYKMKSFTSNMEQILSNDNQLAPTVIRILNSRNSWCLNSCHACLTFIMENITSDNYGKRSACLKALASITNSLLDTIIGFASTKTRRIGVDVVAEERAAKATECIHNFRKIVKNRDKIYKQIDQETIYKLDAILERLKKVSSHK
With B5, in test [5], the microtubule stimulated ATPase, reduced (so in the source) came out at 58%. This molecule came in with a basal ATPase, reduced (so in the source) in [9] of 42%.

In turn, DATAEEEGEFEEEAEEEVA [βIVb-tubulin tail peptide] registered a maximal stimulation of katanin ATPase by the tail peptide (2 to 600 μM) in test [3] of 3.5 fold.

The record behind these values is article PMC7060837.
